Results as given in the DeepSol protein solubility set.

Assay: soluble on expression in E. coli; label from the status in PepcDB or PDB records

| Sequence | soluble on expression in E. coli |
| --- | --- |
| MGSDKIHHHHHHEPTKLTPENYFNTPAEANSFLTGIYAILSQPTFYGGDYMYLVAGDDLSHYGGSGRGPASTGLICNNATTSDNAVTAFWYALYSGINRANMFLENIDKVNGFDAGVKEQYIAEARFLRAFYYFNLVECWGDVPFKTVSTQSVTNLNIPRTDKQEIYDFIISEMADAAETGLKSASDLAYKPGRISQSTAWGILARVYLFRAGEHYREGRNATQAEKKDYFERASFYAQKVMTAGHKLAANYWDPFIDMCSDKYNTTANESIWEAEFAGNNTSDTQAEGRIGNIIGLAGPDLSSKSDVTGAKDPGYGYAFIYSTPKLYNLYVNNGDTKRFNWSIAPFEYKEAGGKNTGVTHREFEQGKLAEVMSQYGQQRGTYQYADDTEKTTATKNFSRMCGKYRREYEADKKDKNYTSINFPILRYADVLLMIAEAENEANNGPTTLAYQCMKEVRERAGLNELPDMTQEEFRQTVKDERAMELCFEYTRRFDLIRWGEYVKNMRALVTEAQSGNNWTQGPTNVYTYFNISSTYNYFPIPDAEMSVNKDITQNNPGW | not soluble |
| GSKAEKTLGDFAAEYAKSNRSTCKGCMEKIEKGQVRLSKKMVDPEKPQLGMIDRWYHPGCFVKNREELGFRPEYSASQLKGFSLLATEDKEALKKQLPGVKSEGKRKGDEVDGVDEVAKKK | soluble |
| FTLVCITAASRHHWGTEVDIFDPDLLPRGQSLQLEPWEYEKGGYFFELSEFLAENLPHFDFALPFMNMQSNKKVGREPWHISYLPL | not soluble |
| MSLALDHVGIATEDAAGLAERFGAVFETQIAHSETFDGMYIIFLDMNGTYLELLEPVDDSDGPIATFLAQRDAGIHHIAIMTEDIATALENARAVGIECIDETPRQGAWGHQVAFLHPRSTGGVLCEFVQQEGHHHHHH | soluble |
| MSLNGSMVYGDFIRNQEVRKRITKEELGIEEDEIPERVVVTPMPFNTQFPKNFEDTLTNLGIKVNRLKVEDQILRQFGGNLLLEKDGNRGFIAFIGRGLIDFTERIRILATVSRIKDILFIGTAGSLSNEILIGDLNIPKYAIPFENVSDFYADPTIAIPQADEKLLNEVYEYAEETGVKTHSTLHATLLFPYSETTEFLNYLLNIGVSTIDMEVSAFYKMSRFYGKRAVAVLRISDMPLIELHKQEELIKARREIAVNAVFRITLRFLKLEGHHHHHH | soluble |
| MGHHHHHHSHMGKWHVGGRRGSPRQWGATARGRDLEAVRRGGCGSVGRRRQRRRRRRRRMRRMRRMWATQGLAVRVALSVLPGSRALRPGDCEVCISYLGRFYQDLKDRDVTFSPATIENELIKFCREARGKENRLCYYIGATDDAATKIINEVSKPLAHHIPVEKICEKLKKKDSQICELKYDKQIDLSTVDLKKLRVKELKKILDDWGETCKGCAEKSDYIRKINELMPKYAPKAASAPTDL | not soluble |
| MTLKGRIHSFESFGTLDGPGIRFVVFMQGCPLRCIYCHNRDTWDVNAGSEYTPRQVIDEMMKYIDYIKVSGGGITVTGGEPVLQADFVAEVFRLAKEQGVHTALDTNGFADIEKVERLIKYTDLVLLDIKHAREDKHKIITGVSNEKIKRFALYLSDQGVPIWIRYVLVPGYTDDEDDLKMAADFIKKLKTVEKIEVLPYHNMGAYKWEKLGQKYMLEGVKGPSAQEVEKAKRILSGK | soluble |
| MGSDKIHHHHHHMVREPASTLLPPTSPATPAPHRLLIGRRGMVPTGANVIWKIQSGLVRSSTWGEEGDMISLGLWGPGDLIGRPLSCLDPYELECLTAVEVVAVSDPALESHESLVRSLRYTERLLSITRLRRAEAKLASLLGWIGERFGQPGATGWEIDLRRIPLTHQVIAELSGSTRVTTTRLLGEFRQAGRIHRRDRALIVRYPETLYPPARLSA | not soluble |
| MGKLNRRDVIKGLGMAAASLAAAQRGLQARAAPSRIVWSPYVVFLNANAKAFIVDTRTDQVVASLDTARGATLGSMTPDAKKVYVSGAGEGETRVVILDLENLRVAKVLETGNRPKHGLVSPDGRRVGVDHWALSGGKLRLTFIRTEDDTIEKVLDIPVTNQPKGVTSMHNAWSWDSRYFFSVDRVDDRLVVVDTADWSVRTFSAPSVPHYPVVSPDGKELWLVHEGNDRVRPGIAVYDLTRPDLPIVAQVEMPLIGEDAVEAHHGNFTQDGRYFMALNRGPGNNLRGREVAFFSPRTKRLVHRLTCASTGVGHAYNSPDGRRVIATNYGNNVITVIDLLGLRTLKDLVIGKGRMGHVVFTPDGRFAYLSNADGNLYKLDMRSLTVVKVIETGQTNGGGQVLNVWTNVFEELPRG | soluble |
| MAHHHHHHMKGSNTVHTREANANEVHASRQDMRAALLPSDTRILVSRIPASAVSVVSDETRAKGRRRCLVTRTLRRCPEMMSHRRGGHAALVSLLLPLTSHRFCVSPSHVLSIASCAFPCTHSCCVQQGVHPSHLPACLPACRRPRACFVSALCRAHEHAVMFSYNNIIEKGEPLNKEIIDHVLDHVTEFPTPTMVSVGDGKADCIVLENFLTHEECDQLVAACEKVGYTFWLQKNHHDADGEATCDSGSKAVRVVDTIEANFPHLSAKLYERIARVVSLKPKCFSEDMPNAEELFERELAGTWVPHALSENLLFGRYHPGGHFMPHVDGATILDLNTRSFYTLLIYLNDCLHGGETFIFAGEQCNVMYLDEKENQYRGNATQRVGAVYPKKGSAAFFYYNLLHEGAPVLEGHKYICRADLLYHRTPTIFTSEADEKAFKAYQEARLAESHGDAERACQLFQRVRKLSKGVASIFQIE | not soluble |
| MDQECIENYAKVNGIYIYYKLCKAPEEKAKLMTMHGGPGMSHDYLLSLRDMTKEGITVLFYDQFGCGRSEEPDQSKFTIDYGVEEAEALRSKLFGNEKVFLMGSSYGGALALAYAVKYQDHLKGLIVSGGLSSVPLTVKEMNRLIDELPAKYRDAIKKYGSSGSYENPEYQEAVNYFYHQHLLRSEDWPPEVLKSLEYAERRNVYRIMNGPNQFTITGTIKDWDITDKISAIKIPTLITVGEYDEVTPNVARVIHEKIAGSELHVFRDCSHLTMWEDREGYNKLLSDFILKHL | soluble |
| MSLIRDRTEPVMSAKLPPVEPVSPTNPRSSASPGSPDRSGLPVVVSVVGLVHTPGLVTLAPGARIADALQAAGGAVDGADTVGLNMARQLGDGEQIVVGLAPPSGQPRVLGSSVGAGTPGPAGTSGTATTGPKTAPKTAEVLDLNTATVEQLDALPGIGPVTAAAIVAWRQRNGRFTSVDQLADVDGIGPARLDKRRNLVRVEGHHHHHH | soluble |
| MVNPQAGVVVGYWHNWCGGAGYKGGVAPCVSLAQVNPQYNVVDISFMKVYGATGSIPTFKLDPAVGLSEAQFIDQIGELNRQGRAVLIALGGADAHIELRKGQEHDLANEIIRLVEKYGFDGLDIDLEQAAVTAADNQIVIPAALRIVKDHYRKQQKNFLITMAPEFPYLTTGGKYVPYINALEGYYDWINPQFYNQGGDGIYIEGIGWIAQNNDSLKQEFIYHISDALVNGTNGFTKIPHDKLVFGIPTNIDAAATGYVSDPNALFAAFEQLKNQGQPLRGLMTWSVNWDMGKNAAGQAYNESFIKAYGPFIHGQDITPPEPENGKPIFSGLSNTRVKLGGTFNAMDGVSAYDEEDKDLTQQIQVTGDVNTNQIGLYPLTYKVTDSDNNTTEQVRTVEVYNTKPELSGVSNTTIILATPFDAMAGVSATDAEDGNLTPNIRVEGEVDSNRVGQYQLTYSVSDSAGEQTRAVRLVTVQEQGAVCENLWSASKIYLGGDTVNYAGKIWLAGWWTQGEQPDLAGEWGVWKSKGDSDCDSGLPPVITPNFTVSGLASSYILNQGQVSINFNVNTNQAMELTANLTQEQRILASTTATINGNGAMVLQAESLEAGAYQVVISAKDKNLTQSYNVSLVQGDDGSEPVEYPAYVAGNQYQAGNIVTNAGGVYQCRPWPNSGWCSGSAPYYAPGTGSAWQDAWTKHLEHHHHHH | soluble |
| MGSDKIHHHHHHMRNLDITTLRSFVAVADTGGVTRAASFLHLTQSAVSMQLKRLEEMLGVELLDRSGRNIGLTSAGEQLLGFARKMLSLNDEIITRLTDQAFEGEVTLGVPHDVVHPVIPMVMQRFNVQFPRVKVNLCTSNTRDLKMDFAQGRFDLIVTTETTASEGGEVIHQMPLRWIGALGGQTWRQRPLRIGFCRNCIFRGLATAALDDAGIPWEMAVDSESDRTVEATVSADLAVGVLLEGTQPAHQQVIDHGGSLPQLPVQHINLYGAERSRAQYVDHLASLIRQGFAGLSQPGLRAVGTEMVSAPVQLGVV | not soluble |
| MGSLNGGSPEGVESQDGVDHFRAMIVEFMASKKMQLEFPPSLNSHDRLRVHQIAEEHGLRHDSSGEGKRRFITVSKRAGSHHHHHH | soluble |
